Measurements taken from patent publication US20030180295A1, “Angiocidin: a Cys-Ser-Val-Thr-Cys-Gly specific tumor cell adhesion receptor” (Philadelphia Health and Education Corporation, priority 1999, published 2003).

Experiments:
[1] = test system: Bovine aortic endothelial cells (BAEC); experiment: ALAMAR BLUE cell viability assay; type: cell-based
Method: Bovine aortic endothelial cells (BAEC), human umbilical vein endothelial cells (HUVEC), fibroblast cells, A549 human lung carcinoma cells (A549), MDA-MB231 human breast carcinoma cells (MB231), MCF7 human breast carcinoma cells (MCF7) were treated with 37 μg/ml of receptor, or buffer alone, for 24 hours. Viability of the cells was measured using the ALAMAR BLUE™ assay, which measures the capacity of cells to metabolize the ALAMAR BLUE™ dye. The ALAMAR BLUE™ assay (available from Biosource International, Camarillo, Calif.) quantitatively measures the proliferation of cell lines and can establish the relative cytotoxicity of chemical agents. […] Data can be collected using either fluorescence-based instrumentation (530-560 nm excitation wavelength and 590 nm emission wavelength) or absorbance-based instrumentation (570 nm and 600 nm).
BAEC and BSM cells were treated with increasing concentrations of angiocidin (0, 0.625, 1.25, 2.5, 5, 15, 26 and 37 μg/ml) for 24 hours. Cell viability was measured using the ALAMAR BLUE Tm assay. […]
Bovine aortic endothelial cells (BAEC) were cultured overnight in serum-free media containing either 37 μg/ml his-tagged angiocidin or his-tagged GST. […] Viability was measured by the ALAMAR BLUE™ assay. […]
The endothelial cells (BAEC) were incubated overnight 37 μg/ml of the angiocidin, fragments, and GST. Viability was measured using the ALAMAR BLUE™ assay.

TSP-1 = TSP-1 (Homo sapiens, UniProt P07996); experiment: Optical binding of angiocidin fragments to TSP-1 derivatized cuvette; details: test proteins at 10 nm in PBS buffer
Method: This study examines the amino terminal (Met1-Lys132) and carboxy terminal (IIe248-Lys380) portions of angiocidin (SEQ ID NOS: 24 and 25, respectively). The binding of undenatured recombinant angiocidin fragments was compared to full length angiocidin. GST was used as a negative control. Binding was evaluated using an optical binding method that uses a cuvette to which TSP-1 is covalently coupled. A laser beam was used to detect whether the test protein (fragments, angiocidin, or GST) is bound to the TSP-1 derivatized cuvette surface. The cuvette was derivatized with 1 μg of TSP-1. The cuvette surfaces were blocked with a 1% BSA solution to prevent nonspecific binding. The test proteins were added at a concentration of […] in a PBS buffer.

Sequence of TSP-1 (P07996 19-1170): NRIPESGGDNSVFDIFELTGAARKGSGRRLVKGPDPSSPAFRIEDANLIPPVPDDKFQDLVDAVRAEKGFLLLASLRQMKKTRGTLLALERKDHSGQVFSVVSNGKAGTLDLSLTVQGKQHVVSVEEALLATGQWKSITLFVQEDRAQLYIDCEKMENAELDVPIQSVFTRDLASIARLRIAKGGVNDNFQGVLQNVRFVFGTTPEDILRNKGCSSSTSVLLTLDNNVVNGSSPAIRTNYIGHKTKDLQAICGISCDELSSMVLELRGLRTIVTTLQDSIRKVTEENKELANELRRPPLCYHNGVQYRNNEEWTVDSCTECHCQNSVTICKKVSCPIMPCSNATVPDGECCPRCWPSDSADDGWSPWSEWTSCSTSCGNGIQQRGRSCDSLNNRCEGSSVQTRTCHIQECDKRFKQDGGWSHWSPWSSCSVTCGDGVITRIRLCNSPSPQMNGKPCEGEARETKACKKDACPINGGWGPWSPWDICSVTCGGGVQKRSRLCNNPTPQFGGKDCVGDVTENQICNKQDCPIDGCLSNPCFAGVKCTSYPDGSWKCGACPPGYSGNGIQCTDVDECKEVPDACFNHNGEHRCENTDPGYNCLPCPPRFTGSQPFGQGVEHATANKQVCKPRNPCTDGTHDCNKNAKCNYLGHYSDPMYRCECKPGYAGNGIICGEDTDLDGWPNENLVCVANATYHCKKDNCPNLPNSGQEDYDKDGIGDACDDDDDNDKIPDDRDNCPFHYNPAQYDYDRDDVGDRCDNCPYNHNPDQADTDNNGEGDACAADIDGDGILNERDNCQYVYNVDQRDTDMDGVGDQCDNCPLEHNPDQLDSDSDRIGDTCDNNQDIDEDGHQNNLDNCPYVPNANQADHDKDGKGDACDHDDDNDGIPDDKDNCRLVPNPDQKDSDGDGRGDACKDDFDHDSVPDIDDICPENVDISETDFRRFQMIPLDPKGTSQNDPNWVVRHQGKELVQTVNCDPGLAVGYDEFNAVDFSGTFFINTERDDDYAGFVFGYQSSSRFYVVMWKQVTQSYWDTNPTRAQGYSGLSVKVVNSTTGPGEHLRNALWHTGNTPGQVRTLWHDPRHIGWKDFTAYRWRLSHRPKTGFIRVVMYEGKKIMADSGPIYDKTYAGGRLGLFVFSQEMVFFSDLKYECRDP

B1: amino terminal fragment Met1-Lys132: amino terminal fragment Met1-Lys132 of angiocidin (SEQ ID NO: 24) (protein, listed as Homo sapiens)
chain: MVLESTMVCVDNSEYMRNGDFLPTRLQAQQDAVNIVCHSKTRSNPENNVGLITLANDCEVLTTLTPDTGRILSKLHTVQPKGKITFCTGIRVAHLALKHRQGKNHKMRIIAFVGSPVEDNEKDLVKLAKRLK
- anti-endothelial activity compared to angiocidin ([1]; 37 μg/ml, overnight): has the same anti-endothelial activity as the full length angiocidin
- cell viability, angiocidin and fragments ([1]; Example 27, FIG. 34): inhibited cell viability
- binding to TSP-1 derivatized cuvette (TSP-1): show very similar binding at the nano molar range
